{
  "source": "paper PMC2912373",
  "about": "“Low-Density Lipoprotein Receptor-Related Protein 1 (LRP1) Mediates Neuronal Aβ42 Uptake and Lysosomal Trafficking” (PLoS ONE, 2010)",
  "key": {"LRP1": {"system": "LRP1", "conditions": "ref [23], [36]; cited from earlier work"}, "N2a-mLRP4 cells": {"system": "N2a-mLRP4 cells", "assay": "MTS redox cell viability assay in Aβ42 treated cells", "assay_type": "cell-based, mouse", "conditions": "3 µM Aβ42, 72 h; only in mLRP4-expressing cells, not N2a-pcDNA3; p<0.05, n = 3", "protocol": "We hypothesized that Aβ42 treatment might increase cell death in mLRP4-overexpressing N2a cells because we detected increased co-localization of Aβ42 with lysosomes in these cells. We treated N2a-pcDNA3 and N2a-mLRP4 cells with Aβ42 for 24, 48 and 72 h and assessed cell viability by reduction of the MTS redox dye. Aβ42 was prepared identically to the FAM-Aβ42 experiments.\nFigure 5 Increased susceptibility to Aβ42-mediated cell death in LRP1 minireceptor-expressing cells. N2a-pcDNA3 and N2a-mLRP4 cells were incubated with increasing concentrations of Aβ42 for 24, 48 and 72 h and cell viability was assessed by the reduction of the MTS dye.\nN2a-pcDNA3 and N2a-mLRP4 cells were plated at 16,250 cells/cm^2 in 48-well plates and grown overnight. Serial dilutions of freshly prepared synthetic Aβ42 were prepared by diluting the Aβ42 stock with internalization media. Culture media was then replaced with media containing 0, 1 or 3 µM Aβ42 and cells were incubated for an additional 24, 48 or 72 h. Cell viability was measured by using one-solution cell titer kit at each corresponding time point (Promega, Madison, WI). After 4 h labeling, the soluble reduced formazan product was quantified by directly reading the plate in a Bio-Tek plate reader. After background subtraction from media-only containing wells, results were represented as % of the corresponding control and untreated N2a cells."}, "N2a-mLRP4-Tless cells": {"system": "N2a-mLRP4-Tless cells", "assay": "Kinetic analysis of 125I-RAP endocytosis", "assay_type": "cell-based, mouse", "conditions": "5 nM 125I-RAP, 4°C 60 min, then 37°C; internalized/total cell-associated ligand; triple determinations", "protocol": "Figure 4 LRP1 endocytosis is required for Aβ42 uptake and accumulation in N2a cells. A, clathrin heavy chain (CHC) knockdown increases cell surface levels of mLRP4. N2a-mLRP4 cells were infected with CHC shRNA lentivirus or pLKO, control lentivirus. The levels of cell surface and total pools of mLRP4 were determined by flow cytometric analyses with anti-HA antibody in non-permeabilized and saponin-treated cells, respectively. The surface-to-total ratio were calculated and plotted as fold-change to control-infected cells. Right panel, decreased CHC levels and normal mLRP4 levels in transduced N2a-mLRP4 cells were verified by Western blot from sister cultures. […] The intracellular level of FAM-Aβ42 was determined by flow cytometric analyses of pronase-treated cells. […] The cell surface and total pools of the LRP1 minireceptor were determined by flow cytometric analyses with anti-HA antibody as in A in N2a-mLRP4 cells and in N2a cells stably transfected with a deletion variant lacking the cytoplasmic tail of mLRP4 (mLRP4-Tless). The surface-to-total ratios were then calculated and plotted as fold-change to N2a-mLRP4 cells. […] At each time point, the amounts of ligand that is either internalized or that remains at the cell surface were determined and the ratios of internalized to total cell-associated ligand were plotted against time. […]"}},
  "note": "“Also recorded” adds a separate entry of the source.",
  "data": [
    {"molecule": "RAP: LRP1 chaperone of 39-kDa, model extracellular ligand for LRP1; labeled with Alexa-488 for uptake", "values": [
      {"measurement": "affinity of RAP binding to LRP1", "setting": "LRP1", "result": "high affinity"}
    ]},
    {"molecule": "Aβ42: Unlabeled synthetic Aβ42 obtained from Bachem", "values": [
      {"measurement": "cell viability (reduction of MTS dye)", "setting": "N2a-mLRP4 cells", "result": "slight yet significant decrease; also recorded: Decreased viability"}
    ]},
    {"molecule": "^125I-RAP: iodinated RAP protein used at 5 nM for kinetic analysis of endocytosis (protein, UniProt P30533 35-357, looked up, 125I-labeled, iodinated RAP protein used at 5 nM for kinetic analysis of endocytosis) Alpha-2-macroglobulin …: YSREKNQPKPSPKRESGEEFRMEKLNQLWEKAQRLHLPPVRLAELHADLKIQERDELAWKKLKLDGLDEDGEKEARLIRNLNVILAKYGLDGKKDARQVTSNSLSGTQEDGLDDPRLEKLWHKAKTSGKFSGEELDKLWREFLHHKEKVHEYNVLLETLSRTEEIHENVISPSDLSDIKGSVLHSRHTELKEKLRSINQGLDRLRRVSHQGYSTEAEFEEPRVIDLWDLAQSANLTDKELEAFREELKHFEAKIEKHNHYQKQLEIAHEKLRHAESVGDGERVSRSREKHALLEGRTKELGYTVKKHLQDLSGRISRARHNEL", "values": [
      {"measurement": "endocytosis rate for 125I-RAP in N2a-mLRP4-Tless vs N2a-mLRP4 cells", "setting": "N2a-mLRP4-Tless cells", "result": "decreased"}
    ]}
  ]
}
